Each block holds one molecule with its values, some of them ahead of it.
How the values were obtained:
[1] = test system: S100 proteins; settings: Okada et al. 2002; cited from earlier work
[2] = test system: NIH3T3 cells; experiment: NIH3T3 cell survival after apoptotic insults (5-FU, anoikis on polyHEMA); type: cell-based
Procedure: Apoptosis was induced in NIH3T3 cells either by prevention of cell adhesion to a solid substrate (anoikis) or by use of 5-flurouracil. To prevent cell adhesion, 6 well plates were covered (3 ml/well) with a solution of polyhydroxyethylmethacrylate (polyHEMA; Sigma-Aldrich) dissolved at 10 mg/ml in ethanol. Plates were kept at 37° C. for 5 days to evaporate solvent completely. Cells were resuspended at 5×10^4 cells/ml and were cultured (1 ml/well) in DMEM medium containing 10% fetal calf serum for different times on polyHEMA coated dishes at 37° C. and 5% CO2. Subsequently, cells were subjected to cell viability studies using MTS or recovered and analyzed for caspase 3 activity.

[3] = target: RAGE (endogenous, of NIH3T3 cells) (UniProt Q62151); experiment: cell-based or functional assay
[4] = test system: NF-κB; experiment: NF-κB electrophoretic mobility shift assay in NIH3T3 cells; type: cell-based
Procedure: Nuclear extracts were prepared and used for electrophoretic mobility shift assays (EMSAs) as previously described (Han et al., Am. J. Physiol. 277:C74 [1999]). For NF-κB DNA binding the reaction was started by addition of 10,000 cpm of the 22-base pair oligonucleotide 5′-AGTTGAGGGGACTTTCCCAGGC-3′ (SEQ ID NO:7) containing the NF-κB consensus sequence that had been labeled with [γ-32P]-ATP (10 mCi/mmol) by T4 polynucleotide kinase. The reaction was allowed to proceed for 30 min at room temperature. For cold competition experiments unlabeled NF-κB oligonucleotide or OCT1 oligonucleotide as a nonspecific competitor (300×) were added to the binding reaction 5 min before the addition of the radiolabeled probe. For antibody supershift assays 2 μl of specific antibodies to NF-κB protein subunits p65, p50, and c-Rel were incubated with nuclear extracts for 1 hour at room temperature prior to the addition of labeled probe. All reaction mixtures were subjected to PAGE on 4.5% gel in 0.5×TBE buffer at 200 V. Gels were dried and directly exposed to the membranes were exposed to a B-1 phosphoimaging screen and visualized by the use of GS-250 Molecular Imaging System (Bio-Rad Laboratories, Richmond, Calif.).

[5] = target: T1, RAGE (Mus musculus, UniProt Q62151); experiment: Co-immunoprecipitation (pull-down) of S100P with RAGE from NIH3T3 lysates; type: binding; settings: NIH3T3 lysates incubated with S100P and S100P antibody
T1 construct: RAGE was present in the S100P complexes from wild-type NIH3T3 cells incubated with exogenous S100P and S100P antibody; endogenous in cells; host or cells: NIH3T3 cell lysates for RAGE; E. coli TOP10 for the added His-S100P
Procedure: For co-immunoprecipitation experiments, cell lysates were incubated in the absence or presence of S100P (1 μg) at 4° C. overnight. S100P was immunoprecipitated using mouse monoclonal antibody against S100P (Transduction Laboratories, San Diego, Calif.), for 6 hours at 4° C. and IgG immobolized beads (Pierce, Rockford, Ill.). Antibody associated proteins were electrophoresed on 10% polyacrylamide gel and transferred to nitrocellulose membrane. Transferred membrane was blocked by 5% milk solution overnight at 4° C. RAGE was detected as described.

[6] = test system: NIH3T3 cells; experiment: Cell growth (MTS) of NIH3T3 cells with exogenously applied purified S100P; type: cell-based
Procedure: Cell growth was analyzed by using MTS reagent (Promega, Madison, Wis.) as per manufactures directions. For studies on the effects of S100P expression, vector alone and three different clonal S100P stably transfected cell lines (1000 cells/well) were seeded into 96 well plates and cell growth was studied from 0-120 hrs. For studies on the effects of exogenously applied S100P, purified S100P was added at indicated concentrations for specific times. MTS was added to the wells one hour before taking the photometric reading.
Full length S100P cDNA was cloned into pTrcHis2 vector (Invitrogen, Carlsbad, Calif.) and transformed into one shot TOP10 competent E.coli. The bacterial culture was incubated at 37° C. to an OD600=0.6, then IPTG (1 mM) was added and the bacteria were cultured for another 3 hrs. His-S100P was purified using Probond resin column as described by the manufacturer (Invitrogen, Carlsbad, Calif.). The fraction was further dialyzed against 10 mM Tris, pH 8.0, containing 01% Triton X 100 overnight at 4° C. using a Slide-A-Lyzer 10K (Pierce, Rockford, Ill.). Dialyzed protein was further concentrated by Centricon centrifugal filter device YM10 (Millipore, Bedford, Mass.). The purified S100P protein was confirmed by western blot and ELISA and used for in vitro experiments.

[7] = test system: Erk 1 & 2; experiment: Erk 1 & 2 phosphorylation in NIH3T3 cells (western blot); type: cell-based
Procedure: Western blot analysis was utilized for the detection of S100P, RAGE, as well as activated Erks and caspase 3 by minor modifications of previously published methods. Cell lysates were prepared and separated by SDS polyacrylimide gel electrophoresis and transferred to nitrocellulose. Membranes were blocked by overnight incubation at 4° C. in 5% milk solution. S100P was detected usingmonoclonal antibodies (Transduction Laboratories, San Diego, Calif.) by incubating the membrane overnight at 4° C. in antibody diluted 1:100 in 5% milk solution. RAGE was detected using goat polyclonal antibodies (Santa Cruz, Santa Cruz, Calif.) by incubating the transferred membrane in for one hour at room temperature with antibody diluted 1:100 in 5% milk solution. Caspase 3 activation was estimated by detection of pro-caspase 3 and active caspase 3 fragments using rabbit polyclonal antibodies against full length caspase 3 (Santacruz Biotech, Calif.) by incubating the membrane at 4° C. for overnight with antibody diluted 1:100 in 5% milk solution. Erk activation was estimated by detection of phosphorylated forms of Erk 1 and 2 using phospho-p44/42 MAP kinase (Thr202/Tyr204) antibody (Cell Signaling, Beverly, Mass.) and, as a loading control after striping, a rabbit polyclonal antibody for total Erk 1 & 2 (Santa Cruz, Santa Cruz, Calif.) by incubating the membrane at 4° C. overnight with antibody diluted 1:100 in 5% milk solution. Second antibody anti-mouse, anti-rabbit, or anti-goat IgG+HRP was incubated for one hour at room temperature and the signal was detected by ECL detection system (Amersham) as per manufacturer protocol.

Chain of RAGE (endogenous, of NIH3T3 cells) (Q62151 23-402 limits assumed): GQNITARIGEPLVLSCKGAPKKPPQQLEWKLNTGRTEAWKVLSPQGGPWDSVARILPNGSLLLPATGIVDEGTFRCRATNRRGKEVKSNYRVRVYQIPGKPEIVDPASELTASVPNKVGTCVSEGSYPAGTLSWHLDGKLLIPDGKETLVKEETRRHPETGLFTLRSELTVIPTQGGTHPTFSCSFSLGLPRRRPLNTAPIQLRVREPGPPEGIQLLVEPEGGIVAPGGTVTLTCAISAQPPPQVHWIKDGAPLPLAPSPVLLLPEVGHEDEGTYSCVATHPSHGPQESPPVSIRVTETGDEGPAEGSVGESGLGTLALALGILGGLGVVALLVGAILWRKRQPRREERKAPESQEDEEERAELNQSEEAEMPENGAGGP
T1 sequence (Q62151 23-402): as the sequence (Q62151 23-402 limits assumed) above

Molecule: CC(C)c1ccc2oc3nc(N)c(C(=O)O)cc3c(=O)c2c1 [amlexanox]
- interaction with S100 proteins [1]: interact with S100 proteins

Molecule: O=c1[nH]cc(F)c(=O)[nH]1 [5-FU, 5-fluorouracil, reference compound]
- killing of NIH3T3 cells ([2]; wild-type vs S100P expressing NIH3T3 cells, 5-FU 150 ug/ml (FIG. 5B)): efficiently kill wild-type but not S100P expressing NIH3T3 cells

Molecule: CN(C)CC/C=C1/c2ccccc2COc2ccc(CC(=O)O)cc21 [olopatadine]
- interaction with S100 proteins [1]: interact with S100 proteins

Further lines, with some results ahead:

- inhibition of S100P activation of Erk [3]: 50 nM
- inhibition of S100P activation of Erk, complete [3]: 500 nM
Molecule: synthetic peptide derived from amphoterin (RAGE antagonist peptide)

- NIH3T3 cell proliferation, fold over control [3]: 2 fold
Molecule: purified His-S100P protein (His-tagged fusion protein of full length S100P made in E. coli) (from UniProt P25815 1-95) (ligand)
- survival of NIH3T3 cells after 5 FU [3]: 1 nM

- interaction with RAGE (co-immuno-precipitation) [5]: can interact directly with RAGE
B1: S100P: purified S100P generated as a His-tagged fusion protein in bacteria (protein, UniProt P25815 1-95, looked up)
Protein S100-P: MTELETAMGMIIDVFSRYSGSEGSTQTLTKGELKVLMEKELPGFLQSGKDKDAVDKLLKDLDANGDAQVDFSEFIVFVAAITSACHKYFEKAGLK
modifications: His tag
notes: purified S100P generated as a His-tagged fusion protein in bacteria
- duration increase in NF-κB DNA binding was maintained ([4]; S100P, NIH3T3, EMSA): at least 2 hours
- time to initiation of increase in NF-κB DNA binding ([4]; S100P, NIH3T3, EMSA): ≤ 10 min
- concentration at which significant effects on NF-κB activation were noted ([4]; concentration dependence): 0.1 nM
- concentration giving maximal effect on NF-κB activation ([4]; concentration dependence): 100 nM
- concentration giving maximal effect on cell proliferation ([6]; NIH3T3 cells): 100 nM
- concentration at which effects on cell proliferation were noted ([6]; purified S100P added to NIH3T3 cells, dose-response): 10 pM
- time after which significant increase in cell proliferation was noted ([6]; time-course): 48 h
- maximal effect on cell proliferation ([6]; with 100 nM S100P): ~2 fold over control
- concentration at which effects on Erk phosphorylation were noted ([7]; dose-response): 10 pM
- concentration giving maximal effects on Erk phosphorylation ([7]; dose-response): 100 nM
- duration Erk phosphorylation remained significantly elevated ([7]; purified S100P, NIH3T3): at least 2 hours
- time of maximal increase of Erk phosphorylation ([7]; purified S100P, NIH3T3): 30 min
- time to significant Erk 1 & 2 phosphorylation ([7]; purified S100P, NIH3T3): ≤ 10 min
- concentration at which protection from the effects of 5 FU was noted ([2]; S100P added to culture medium, NIH3T3): 1 nM
- time after which significant protection from anoikis was noted ([2]; time-course): 36 h

Reference: US20050009067A1, “Expression profile of pancreatic cancer” (priority 2003, published 2005)
